Results on one substance are retold here after US20260028400A1.

This assay deals with ROR1 expressed on cell surface (Jeko-1 cell line, AMB-LC-0003T and AMB-LC-0002T patient-derived lung cancer cells) (human) (UniProt Q01973). The assay is described as follows: cell-based or functional assay.
Sequence of ROR1 expressed on cell surface (Jeko-1 cell line, AMB-LC-0003T and AMB-LC-0002T patient-derived lung cancer cells) (human) (Q01973 30-937): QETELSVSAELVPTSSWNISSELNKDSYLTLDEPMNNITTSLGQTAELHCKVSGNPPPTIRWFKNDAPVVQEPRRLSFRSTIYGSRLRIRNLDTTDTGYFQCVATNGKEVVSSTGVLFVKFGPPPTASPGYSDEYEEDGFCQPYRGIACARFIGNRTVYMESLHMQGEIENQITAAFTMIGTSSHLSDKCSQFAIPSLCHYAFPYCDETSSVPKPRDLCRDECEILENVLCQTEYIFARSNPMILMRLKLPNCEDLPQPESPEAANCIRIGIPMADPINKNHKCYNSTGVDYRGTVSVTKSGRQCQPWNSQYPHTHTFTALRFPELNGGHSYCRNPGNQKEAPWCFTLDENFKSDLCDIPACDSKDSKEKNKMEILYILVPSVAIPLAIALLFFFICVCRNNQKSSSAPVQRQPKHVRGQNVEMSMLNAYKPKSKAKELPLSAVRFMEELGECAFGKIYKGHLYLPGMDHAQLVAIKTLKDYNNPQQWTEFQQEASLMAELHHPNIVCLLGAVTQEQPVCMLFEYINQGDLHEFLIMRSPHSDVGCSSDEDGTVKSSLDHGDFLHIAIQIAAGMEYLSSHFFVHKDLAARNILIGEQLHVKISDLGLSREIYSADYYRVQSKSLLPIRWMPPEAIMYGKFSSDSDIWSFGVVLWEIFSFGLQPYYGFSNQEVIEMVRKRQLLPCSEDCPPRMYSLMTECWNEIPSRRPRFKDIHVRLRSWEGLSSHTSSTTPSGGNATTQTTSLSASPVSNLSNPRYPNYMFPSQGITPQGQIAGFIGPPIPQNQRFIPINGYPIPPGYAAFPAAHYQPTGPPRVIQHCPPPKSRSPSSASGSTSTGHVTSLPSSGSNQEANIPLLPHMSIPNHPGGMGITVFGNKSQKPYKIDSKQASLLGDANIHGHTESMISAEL

The substance UC961-vc-PAB-MMAE (antibody) gave a Fold Change of IC50, AMB-LC-0002T/AMB-LC-0003T of 11.1 fold; an IC50 (nM), spheroid volume, AMB-LC-0002T (low ROR1 expression) of 282 nM; an IC50 (nM), spheroid volume, AMB-LC-0003T (high ROR1 expression) of 25.4 nM.
